One molecule from PMC8628696, “Stable DNA Aptamer–Metal–Organic Framework as Horseradish Peroxidase Mimic for Ultra-Sensitive Detection of Carcinoembryonic Antigen in Serum” can be followed below.

The data set concerns the target carcinoembryonic antigen (CEA) (human, UniProt P06731 35-685). Description: colorimetric antibody-aptamer sandwich assay; MOF-grafted tetrahedron 25 ug/mL; CEA 20 ng/mL; antibody-captured CEA; Colorimetric sandwich assay: TMB 2 mM, H2O2 0.2 M, detection time 20 min; binding buffer, pH and temperature not given in the material (storage in PBS at 37 C). Particulars: protein: commercial; label: grafted on PCN-222(Fe) MOF via 5' phosphates (peroxidase mimic); DNA tetrahedron of 4 strands with single-stranded 5' aptamer extension on strand D.

Chain of carcinoembryonic antigen (CEA) (P06731 35-685): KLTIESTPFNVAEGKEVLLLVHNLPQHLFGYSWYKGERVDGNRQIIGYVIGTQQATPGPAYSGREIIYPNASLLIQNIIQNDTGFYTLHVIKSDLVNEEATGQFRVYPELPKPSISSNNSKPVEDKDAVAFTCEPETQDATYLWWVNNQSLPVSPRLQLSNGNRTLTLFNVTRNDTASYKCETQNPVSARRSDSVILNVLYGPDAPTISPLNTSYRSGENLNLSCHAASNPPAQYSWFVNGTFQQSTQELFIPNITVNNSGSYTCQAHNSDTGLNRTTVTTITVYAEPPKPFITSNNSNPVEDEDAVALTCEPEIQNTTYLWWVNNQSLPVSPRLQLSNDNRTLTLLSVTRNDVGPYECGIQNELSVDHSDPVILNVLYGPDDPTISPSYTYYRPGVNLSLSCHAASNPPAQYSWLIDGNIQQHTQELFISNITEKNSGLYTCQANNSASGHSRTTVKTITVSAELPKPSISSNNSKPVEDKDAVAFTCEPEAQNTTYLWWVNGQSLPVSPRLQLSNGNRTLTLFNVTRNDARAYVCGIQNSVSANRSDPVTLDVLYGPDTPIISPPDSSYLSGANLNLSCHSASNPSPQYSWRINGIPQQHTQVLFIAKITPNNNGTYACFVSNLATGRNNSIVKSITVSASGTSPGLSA

B1: CEAapt-TDN (strands D+A+B+C) on PCN-222(Fe) MOF (structured_DNA)
DNA 1: ATACCAGCTTATTCAATTTTTTTTACATTCCTAAGTCTGAAACATTACAGCTTGCTACACGAGAAGAGCCGCCATAGTA
DNA 2: TATCACCAGGCAGTTGACAGTGTAGCAAGCTGTAATAGATGCGAGGGTCCAATAC
DNA 3: TCAACTGCCTGGTGATAAAACGACACTACGTGGGAATCTACTATGGCGGCTCTTC
DNA 4: TTCAGACTTAGGAATGTGCTTCCCACGTAGTGTCGTTTGTATTGGACCCTCGCAT
modifications: 5' phosphate on strands A, B and C
B1: the binding result is on record as “binds”.
